Data: paper PMC6596994 (Nature, 2019)

Legend:
crystal structure = target: the molecule itself; test: crystal structure
[1] = target: T1, human STING CTT (residue 342 to 379, V343W), crystallised (human, UniProt Q86WV6 342-379, V343W); test: crystal structure
T1 chain: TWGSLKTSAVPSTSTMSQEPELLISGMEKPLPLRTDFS

hSTING (155–379) P373A = hSTING (155–379) P373A (human, UniProt Q86WV6 155-379, P373A, biotin on the Avi tag); test: SPR
hSTING (155–379) L372A = hSTING (155–379) L372A (human, UniProt Q86WV6 155-379, L372A, biotin on the Avi tag); test: SPR
[2] = target: T2, human IRF-3 (residue 189–427) (human, UniProt Q14653 189-427); test: SPR
T2 sequence: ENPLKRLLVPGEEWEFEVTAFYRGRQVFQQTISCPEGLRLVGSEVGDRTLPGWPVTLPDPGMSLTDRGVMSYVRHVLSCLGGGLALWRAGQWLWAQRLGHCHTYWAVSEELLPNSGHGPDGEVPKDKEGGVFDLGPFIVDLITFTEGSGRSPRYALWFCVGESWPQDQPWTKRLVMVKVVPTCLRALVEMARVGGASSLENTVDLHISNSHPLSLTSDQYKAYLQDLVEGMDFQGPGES

[3] = target: T3, Human TBK1 (residue 1–657, S172E, D135N) (human, UniProt Q9UHD2 1-657, S172E | D135N); test: crystal structure
T3 sequence: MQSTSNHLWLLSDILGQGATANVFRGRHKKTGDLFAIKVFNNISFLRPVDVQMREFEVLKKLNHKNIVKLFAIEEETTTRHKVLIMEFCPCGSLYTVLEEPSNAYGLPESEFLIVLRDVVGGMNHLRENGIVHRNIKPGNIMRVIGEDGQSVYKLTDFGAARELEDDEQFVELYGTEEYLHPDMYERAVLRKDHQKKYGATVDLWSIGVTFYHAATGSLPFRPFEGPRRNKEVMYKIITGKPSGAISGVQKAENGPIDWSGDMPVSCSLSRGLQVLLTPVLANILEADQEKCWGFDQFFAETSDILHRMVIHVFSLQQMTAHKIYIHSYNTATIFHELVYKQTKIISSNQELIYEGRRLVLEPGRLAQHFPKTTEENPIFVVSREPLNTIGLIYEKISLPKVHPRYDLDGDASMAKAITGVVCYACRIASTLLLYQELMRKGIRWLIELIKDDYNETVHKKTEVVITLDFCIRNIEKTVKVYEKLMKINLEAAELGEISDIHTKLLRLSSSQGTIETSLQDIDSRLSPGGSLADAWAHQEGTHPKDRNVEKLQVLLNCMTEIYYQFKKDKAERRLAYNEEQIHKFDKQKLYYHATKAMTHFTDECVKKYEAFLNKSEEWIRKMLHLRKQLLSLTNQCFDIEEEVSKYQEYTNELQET

B1: Mouse TBK1 (1–657, S172A) (domain or fragment)
chain: MQSTSNHLWLLSDILGQGATANVFRGRHKKTGDLYAVKVFNNISFLRPVDVQMREFEVLKKLNHKNIVKLFAIEEETTTRHKVLIMEFCPCGSLYTVLEEPSNAYGLPESEFLIVLRDVVGGMNHLRENGIVHRDIKPGNIMRVIGEDGQSVYKLTDFGAARELEDDEQFVALYGTEEYLHPDMYERAVLRKDHQKKYGATVDLWSVGVTFYHAATGSLPFRPFEGPRRNKEVMYKIITGKPSGAISGVQKAENGPIDWSGDMPLSCSLSQGLQALLTPVLANILEADQEKCWGFDQFFAETSDVLHRMVIHVFSLQHMTAHKIYIHSYNTAAVFHELVYKQTKIVSSNQELIYEGRRLVLELGRLAQHFPKTTEENPIFVTSREQLNTVGLRYEKISLPKIHPRYDLDGDASMAKAVTGVVCYACRTASTLLLYQELMRKGVRWLVELVKDDYNETVHKKTEVVITLDFCIRNIEKTVKVYEKLMKVNLEAAELGEISDIHTKLLRLSSSQGTIESSLQDISSRLSPGGLLADTWAHQEGTHPRDRNVEKLQVLLNCITEIYYQFKKDKAERRLAYNEEQIHKFDKQKLYYHATKAMSHFSEECVRKYEAFKDKSEEWMRKMLHLRKQLLSLTNQCFDIEEEVSKYQDYTNELQET
Crystal structure
  stoichiometry N: 2
[1]
  stoichiometry N: 1 TBK1 chain per STING peptide (2:2)

B2: Human TBK1 (1–657, S172A) (domain or fragment)
chain: MQSTSNHLWLLSDILGQGATANVFRGRHKKTGDLFAIKVFNNISFLRPVDVQMREFEVLKKLNHKNIVKLFAIEEETTTRHKVLIMEFCPCGSLYTVLEEPSNAYGLPESEFLIVLRDVVGGMNHLRENGIVHRDIKPGNIMRVIGEDGQSVYKLTDFGAARELEDDEQFVALYGTEEYLHPDMYERAVLRKDHQKKYGATVDLWSIGVTFYHAATGSLPFRPFEGPRRNKEVMYKIITGKPSGAISGVQKAENGPIDWSGDMPVSCSLSRGLQVLLTPVLANILEADQEKCWGFDQFFAETSDILHRMVIHVFSLQQMTAHKIYIHSYNTATIFHELVYKQTKIISSNQELIYEGRRLVLEPGRLAQHFPKTTEENPIFVVSREPLNTIGLIYEKISLPKVHPRYDLDGDASMAKAITGVVCYACRIASTLLLYQELMRKGIRWLIELIKDDYNETVHKKTEVVITLDFCIRNIEKTVKVYEKLMKINLEAAELGEISDIHTKLLRLSSSQGTIETSLQDIDSRLSPGGSLADAWAHQEGTHPKDRNVEKLQVLLNCMTEIYYQFKKDKAERRLAYNEEQIHKFDKQKLYYHATKAMTHFTDECVKKYEAFLNKSEEWIRKMLHLRKQLLSLTNQCFDIEEEVSKYQEYTNELQET
hSTING (155–379) P373A
  fold reduction of the binding affinity against wild type STING: ~10 fold
hSTING (155–379) L372A
  fold reduction of the binding affinity against wild type STING: ~10 fold

B3: hSTING (155–379) L374A (domain or fragment)
chain: VAHGLAWSYYIGYLRLILPELQARIRTYNQHYNNLLRGAVSQRLYILLPLDCGVPDNLSMADPNIRFLDKLPQQTGDHAGIKDRVYSNSIYELLENGQRAGTCVLEYATPLQTLFAMSQYSQAGFSREDRLEQAKLFCRTLEDILADAPESQNNCRLIAYQEPADDSSFSLSQEVLRHLRQEEKEEVTVGSLKTSAVPSTSTMSQEPELLISGMEKPLPARTDFS
modifications: biotin on the Avi tag
[2]
  binding result: binds

B4: human STING CTD (residues 155 to 379, T376E, F378M, S379W), crystallised (domain or fragment)
chain: VAHGLAWSYYIGYLRLILPELQARIRTYNQHYNNLLRGAVSQRLYILLPLDCGVPDNLSMADPNIRFLDKLPQQTGDHAGIKDRVYSNSIYELLENGQRAGTCVLEYATPLQTLFAMSQYSQAGFSREDRLEQAKLFCRTLEDILADAPESQNNCRLIAYQEPADDSSFSLSQEVLRHLRQEEKEEVTVGSLKTSAVPSTSTMSQEPELLISGMEKPLPLREDMW
[3]
  binding result: binds
